Measured values reported in US20210301005A1 (Genentech, published 2021).
Read-outs that look alike come from different tables or passages of the source.

How the values were obtained:
[1] = biological target: T1, human TGFβ3, mature dimeric form (human, UniProt P10600 301-412); assay: SPR
T1 construct: Peprotech, expressed in E. coli; also called TGFb3
T1 sequence: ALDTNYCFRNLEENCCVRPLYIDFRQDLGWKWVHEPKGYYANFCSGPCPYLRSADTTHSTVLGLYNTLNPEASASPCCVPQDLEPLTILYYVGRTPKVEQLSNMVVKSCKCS

[2] = biological target: T2, human TGFβ2, mature receptor-binding domain (human, UniProt P09858 303-414 (pig entry), The mature TGFβ2 is a disulfide-linked homodimer of this 112-residue chain. The 4A11 epitope spans both monomers (p-1207).); assay: SPR
T2 construct: Peprotech; also called TGFb2
T2 sequence: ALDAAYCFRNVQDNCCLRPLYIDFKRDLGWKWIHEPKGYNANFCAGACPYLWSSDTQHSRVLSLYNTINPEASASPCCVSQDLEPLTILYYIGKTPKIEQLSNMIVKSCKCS

[3] = biological target: T1, human TGFβ3, mature dimeric form; assay: SPR; remark: listed apart in the source
[4] = biological target: T2, human TGFβ2, mature receptor-binding …; assay: BIAcore T200
Experimental: (§1) For binding affinity determinations of all humanized 2A10 antibodies, Surface Plasmon Resonance (SPR) measurement with a BIAcore™-T200 instrument was used. Briefly, series S CM5 biosensor chip with protein A was first applied to capture each humanized 2A10 variant to achieve approximately 100 response units (RU) on each flow cell, following by injection of 3-fold serial dilutions of human TGFβ1, TGFβ2 or TGFβ3 (0.02 nM to 5 nM) in HBS-EP buffer (0.01M HEPES pH 7.4, 0.15M NaCl, 3 mM EDTA and 0.05% v/v surfactant P20) at 25° C. with a flow rate of 50 μl/min for kinetics measurement. Association rates (ko.) and dissociation rates (koff) were calculated using a simple one-to-one Langmuir binding model (BIAcore T200 evaluation software version 2.0) to determine the equilibrium dissociation constant (KD), which was calculated as the ratio koff/kₒₙ.

[5] = biological target: T1, human TGFβ3, mature dimeric form; assay: BIAcore T200
Experimental: as §1

[6] = biological target: T2, human TGFβ2, mature receptor-binding …; assay: BIAcore T200; remark: listed apart in the source
Experimental: as §1

[7] = biological target: T1, human TGFβ3, mature dimeric form; assay: BIAcore T200; remark: listed apart in the source
Experimental: as §1

[8] = biological target: T1, human TGFβ3, mature dimeric form; assay: cell-based or functional assay
[9] = biological target: T3, human TGFβ1, mature receptor-binding domain (human, UniProt P01137 279-390); assay: cell-based or functional assay
T3 sequence (P01137 279-390 limits assumed): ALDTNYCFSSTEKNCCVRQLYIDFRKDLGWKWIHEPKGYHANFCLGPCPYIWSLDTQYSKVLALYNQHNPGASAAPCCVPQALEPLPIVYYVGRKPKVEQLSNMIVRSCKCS

[10] = biological target: T2, human TGFβ2, mature receptor-binding …; assay: cell-based or functional assay
[11] = biological target: T1, human TGFβ3, mature dimeric form; assay: cell-based or functional assay; remark: listed apart in the source
[12] = biological target: T3, human TGFβ1, mature receptor-binding …; assay: cell-based or functional assay; remark: listed apart in the source
[13] = biological target: T2, human TGFβ2, mature receptor-binding …; assay: cell-based or functional assay; remark: listed apart in the source
[14] = biological target: T1, human TGFβ3, mature dimeric form; assay: cell-based or functional assay; remark: listed apart in the source
[15] = biological target: T3, human TGFβ1, mature receptor-binding …; assay: cell-based or functional assay; remark: listed apart in the source
[16] = biological target: T2, human TGFβ2, mature receptor-binding …; assay: cell-based or functional assay; remark: listed apart in the source
[17] = biological target: T1, human TGFβ3, mature dimeric form; assay: cell-based or functional assay; remark: listed apart in the source
[18] = biological target: T3, human TGFβ1, mature receptor-binding …; assay: BIAcore T200; humanization BIAcore study (Tables 9 and 11), bound only
[19] = biological target: T3, human TGFβ1, mature receptor-binding …; assay: SPR; Table 4 screening SPR, affinity at 25 C; no blocking of TGFb1 (>500 nM at 37 C)
[20] = biological target: T3, human TGFβ1, mature receptor-binding …; assay: BIAcore T200
Experimental: as §1

[21] = biological target: T2, human TGFβ2, mature receptor-binding …; assay: BIAcore T200; remark: listed apart in the source
Experimental: as §1

[22] = biological target: T1, human TGFβ3, mature dimeric form; assay: BIAcore T200; remark: listed apart in the source
Experimental: as §1

[23] = biological target: T3, human TGFβ1, mature receptor-binding …; assay: cell-based or functional assay; remark: listed apart in the source
[24] = biological target: T2, human TGFβ2, mature receptor-binding …; assay: cell-based or functional assay; remark: listed apart in the source
[25] = biological target: T1, human TGFβ3, mature dimeric form; assay: cell-based or functional assay; remark: listed apart in the source

B1: 2A10 (antibody, V domains shown)
VH: EVQLVESGGGLVQPKGSLKLSCAASGFDFNSYGMSWVRQAPGKGLDLVADIVSKTYNYTTYYSDSVKDRFTISRDDSQSMVYLQMDNLKTEDTALYYCTVAPGGSFDYWGQGVMVTVSS
VL: DIVLTQSPALAVSLGQRATISCRASQSVSISRFNLMHWYQHKPGQQPKLLIYRASNLASGIPARFSGSGSGTDFTLTINPVQADDLATYYCQHSRESPWTFGGGTKLEIK
notes: anti-TGFβ3; also called rat 2A10; r2A10
Kd [1]: < 10 pM | Kd [2]: 46 pM | Kd [3]: < 2 pM | Kd [4]: 62.8 pM | Kd [5]: 1.2 pM | Kd [6]: 62.8 pM | Kd [7]: 1.2 pM | cell-based IC50 [8]: < 250 pM | Blocking IC50 [9]: > 500000 pM | Blocking IC50 [10]: 193000 pM | Blocking IC50 [11]: 20 pM | HEKBlue TGFβ blocking IC50 [12]: > 200000 pM | HEKBlue TGFβ blocking IC50 [13]: 70000 pM | HEKBlue TGFβ blocking IC50 [14]: 10 pM | HEKBlue TGFβ blocking IC50 [15]: > 200000 pM | HEKBlue TGFβ blocking IC50 [16]: 70000 pM | HEKBlue TGFβ blocking IC50 [17]: 10 pM | Kd [18]: > 5000 pM | Kd [19]: 1600 pM

B2: h2A10.v2 (antibody, human IgG1, kappa, N297G)
heavy: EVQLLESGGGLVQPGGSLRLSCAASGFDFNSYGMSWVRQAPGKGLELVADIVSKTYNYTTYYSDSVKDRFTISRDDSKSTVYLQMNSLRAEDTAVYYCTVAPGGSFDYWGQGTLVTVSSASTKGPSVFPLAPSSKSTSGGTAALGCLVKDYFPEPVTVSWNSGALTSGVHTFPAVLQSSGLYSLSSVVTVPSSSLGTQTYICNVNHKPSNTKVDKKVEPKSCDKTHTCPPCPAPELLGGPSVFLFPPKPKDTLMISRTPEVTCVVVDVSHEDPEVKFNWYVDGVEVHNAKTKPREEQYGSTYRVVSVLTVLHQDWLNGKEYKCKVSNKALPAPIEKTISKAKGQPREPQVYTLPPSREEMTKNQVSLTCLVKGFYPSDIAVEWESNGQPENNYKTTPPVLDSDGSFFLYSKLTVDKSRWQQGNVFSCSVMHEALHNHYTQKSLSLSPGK
light: DIQLTQSPSSLSASVGDRVTITCRASQSVSISRFNLMHWYQHKPGKQPKLLIYRASNLASGIPSRFSGSGSGTDFTLTISSLQPEDFATYYCQHSRESPWTFGGGTKVEIKRTVAAPSVFIFPPSDEQLKSGTASVVCLLNNFYPREAKVQWKVDNALQSGNSQESVTEQDSKDSTYSLSSTLTLSKADYEKHKVYACEVTHQGLSSPVTKSFNRGEC
notes: also called humanized 2A10 version 2
Kd [4]: 314 pM | Kd [5]: 1.3 pM | Kd [20]: > 5000 pM | Kd [21]: 314 pM | Kd [22]: 1.3 pM | HEKBlue TGFβ blocking IC50 [12]: > 200000 pM | HEKBlue TGFβ blocking IC50 [13]: > 200000 pM | HEKBlue TGFβ blocking IC50 [14]: 10 pM | HEKBlue TGFβ blocking IC50 [23]: > 200000 pM | HEKBlue TGFβ blocking IC50 [24]: > 200000 pM | HEKBlue TGFβ blocking IC50 [25]: 10 pM
